Reference: US20240083958A1, “G PROTEIN PEPTIDOMIMETICS” (VRIJE UNIVERSITEIT BRUSSEL, priority 2020, published 2024)
Like-named read-outs stand apart in the source and are kept apart here. Bridge positions count the residues as written; N and C are the ends. Square brackets hold non-standard residues; d marks the D form. S5 = C=CCCC[C@](C)(N)C(=O)O

How the values were obtained:
Experiment in all cases: cell-based or functional assay
human β2AR [1] = biological target: T1, human β2AR (human, UniProt P07550 2-365)
human β2AR [2] = biological target: T1, human β2AR; remark: listed apart in the source
human β2AR [3] = biological target: T1, human β2AR; remark: listed apart in the source
human β2AR [4] = biological target: T1, human β2AR; remark: listed apart in the source
human β2AR [5] = biological target: T1, human β2AR; remark: listed apart in the source
human β2AR [6] = biological target: T1, human β2AR; remark: listed apart in the source
human β2AR [7] = biological target: T1, human β2AR; remark: listed apart in the source
human β2AR [8] = biological target: T1, human β2AR; remark: listed apart in the source

B1: compound 82 (peptide)
peptide: FNDCRDIIQRMHLRQXELL
HELM: PEPTIDE1{[ac].F.N.D.C.R.D.I.I.Q.R.M.H.L.R.Q.[Cha].E.L.L}$$$$V2.0
SMILES: CC[C@H](C)[C@H](NC(=O)[C@H](CC(=O)O)NC(=O)[C@H](CCCNC(=N)N)NC(=O)[C@H](CS)NC(=O)[C@H](CC(=O)O)NC(=O)[C@H](CC(N)=O)NC(=O)[C@H](Cc1ccccc1)NC(C)=O)C(=O)N[C@H](C(=O)N[C@@H](CCC(N)=O)C(=O)N[C@@H](CCCNC(=N)N)C(=O)N[C@@H](CCSC)C(=O)N[C@@H](Cc1c[nH]cn1)C(=O)N[C@@H](CC(C)C)C(=O)N[C@@H](CCCNC(=N)N)C(=O)N[C@@H](CCC(N)=O)C(=O)N[C@@H](CC1CCCCC1)C(=O)N[C@@H](CCC(=O)O)C(=O)N[C@@H](CC(C)C)C(=O)N[C@@H](CC(C)C)C(=O)O)[C@@H](C)CC
Human β2AR [1]
  Shift (averaged): 32
Human β2AR [2]
  IC50 (nM) of isoproterenol, [3H]-DHA RLA, peptidomimetic present: 25.6 nM
  Shift: 32

B2: compound 23 (peptide)
peptide: Ac-FNECRDKIQRMHLRQYELL-OH
Human β2AR [3]
  Shift (averaged): 3
Human β2AR [4]
  IC50 (nM) of isoproterenol, [3H]-DHA RLA, peptidomimetic present: 270 nM

B3: compound 26 (peptide)
peptide: Ac-FN[S5]CRD[S5]IQRMHLRQYELL-OH
modifications: staple 3-7
SMILES: CC[C@H](C)[C@H](NC(=O)[C@]1(C)CCCC=CCCC[C@](C)(NC(=O)[C@H](CC(N)=O)NC(=O)[C@H](Cc2ccccc2)NC(C)=O)C(=O)N[C@@H](CS)C(=O)N[C@@H](CCCNC(=N)N)C(=O)N[C@@H](CC(=O)O)C(=O)N1)C(=O)N[C@@H](CCC(N)=O)C(=O)N[C@@H](CCCNC(=N)N)C(=O)N[C@@H](CCSC)C(=O)N[C@@H](Cc1c[nH]cn1)C(=O)N[C@@H](CC(C)C)C(=O)N[C@@H](CCCNC(=N)N)C(=O)N[C@@H](CCC(N)=O)C(=O)N[C@@H](Cc1ccc(O)cc1)C(=O)N[C@@H](CCC(=O)O)C(=O)N[C@@H](CC(C)C)C(=O)N[C@@H](CC(C)C)C(=O)O
Human β2AR [3]
  Shift (averaged): 2
Human β2AR [4]
  IC50 (nM) of isoproterenol, [3H]-DHA RLA, peptidomimetic present: 305 nM
  Shift: 2

B4: compound 84 (peptide)
peptide: FNDCRDIIQRMHLRQYELX
HELM: PEPTIDE1{[ac].F.N.D.C.R.D.I.I.Q.R.M.H.L.R.Q.Y.E.L.[Cha]}$$$$V2.0
SMILES: CC[C@H](C)[C@H](NC(=O)[C@H](CC(=O)O)NC(=O)[C@H](CCCNC(=N)N)NC(=O)[C@H](CS)NC(=O)[C@H](CC(=O)O)NC(=O)[C@H](CC(N)=O)NC(=O)[C@H](Cc1ccccc1)NC(C)=O)C(=O)N[C@H](C(=O)N[C@@H](CCC(N)=O)C(=O)N[C@@H](CCCNC(=N)N)C(=O)N[C@@H](CCSC)C(=O)N[C@@H](Cc1c[nH]cn1)C(=O)N[C@@H](CC(C)C)C(=O)N[C@@H](CCCNC(=N)N)C(=O)N[C@@H](CCC(N)=O)C(=O)N[C@@H](Cc1ccc(O)cc1)C(=O)N[C@@H](CCC(=O)O)C(=O)N[C@@H](CC(C)C)C(=O)N[C@@H](CC1CCCCC1)C(=O)O)[C@@H](C)CC
Human β2AR [1]
  Shift (averaged): 12
Human β2AR [2]
  IC50 (nM) of isoproterenol, [3H]-DHA RLA, peptidomimetic present: 66.2 nM
  Shift: 12

B5: compound 5 (peptide)
peptide: Ac-FNDCRDEIQRKHLRQYELL-OH
modifications: lactam 7-11
Human β2AR [3]
  Shift (averaged): 4
Human β2AR [5]
  IC50 (nM) of isoproterenol, [3H]-DHA RLA, peptidomimetic present: 197 nM
  Shift: 4

B6: compound 25 (peptide)
peptide: Ac-FN[S5]CRD[S5]IQRMHLRQYELL-OH
modifications: bridges not given here
Human β2AR [3]
  Shift (averaged): 2
Human β2AR [4]
  IC50 (nM) of isoproterenol, [3H]-DHA RLA, peptidomimetic present: 485 nM
  Shift: 1

B7: compound 6 (peptide)
peptide: Ac-FNDCRD[S5]IQR[S5]HLRQYELL-OH
modifications: bridges not given here
Human β2AR [6]
  IC50 (nM) of isoproterenol, [3H]-DHA RLA, peptidomimetic present: 104 nM
  Shift: 8
Human β2AR [3]
  Shift (averaged): 9

B8: compound 73 (peptide)
peptide: Ac-RRIFNDCRDIIQRMHLRQYELL-OH
Human β2AR [1]
  Shift (averaged): 19
Human β2AR [7]
  IC50 (nM) of isoproterenol, [3H]-DHA RLA, peptidomimetic present: 52.6 nM
  Shift: 19

B9: compound 4 (peptide)
peptide: FNDCRDEIQRKHLRQYELL
HELM: PEPTIDE1{F.N.D.C.R.D.E.I.Q.R.K.H.L.R.Q.Y.E.L.L}$PEPTIDE1,PEPTIDE1,7:R3-11:R3$$$V2.0
SMILES: CC[C@H](C)[C@@H]1NC(=O)[C@@H](NC(=O)[C@H](CC(=O)O)NC(=O)[C@H](CCCNC(=N)N)NC(=O)[C@H](CS)NC(=O)[C@H](CC(=O)O)NC(=O)[C@H](CC(N)=O)NC(=O)[C@@H](N)Cc2ccccc2)CCC(=O)NCCCC[C@@H](C(=O)N[C@@H](Cc2c[nH]cn2)C(=O)N[C@@H](CC(C)C)C(=O)N[C@@H](CCCNC(=N)N)C(=O)N[C@@H](CCC(N)=O)C(=O)N[C@@H](Cc2ccc(O)cc2)C(=O)N[C@@H](CCC(=O)O)C(=O)N[C@@H](CC(C)C)C(=O)N[C@@H](CC(C)C)C(=O)O)NC(=O)[C@H](CCCNC(=N)N)NC(=O)[C@H](CCC(N)=O)NC1=O
Human β2AR [3]
  Shift (averaged): 4
Human β2AR [5]
  IC50 (nM) of isoproterenol, [3H]-DHA RLA, peptidomimetic present: 202 nM
  Shift: 4

B10: compound 7 (peptide)
peptide: H-FNDCRD[S5]IQR[S5]HLRQYELL-OH
modifications: staple 7-11
SMILES: CC[C@H](C)[C@@H]1NC(=O)[C@@](C)(NC(=O)[C@H](CC(=O)O)NC(=O)[C@H](CCCNC(=N)N)NC(=O)[C@H](CS)NC(=O)[C@H](CC(=O)O)NC(=O)[C@H](CC(N)=O)NC(=O)[C@@H](N)Cc2ccccc2)CCCC=CCCC[C@@](C)(C(=O)N[C@@H](Cc2c[nH]cn2)C(=O)N[C@@H](CC(C)C)C(=O)N[C@@H](CCCNC(=N)N)C(=O)N[C@@H](CCC(N)=O)C(=O)N[C@@H](Cc2ccc(O)cc2)C(=O)N[C@@H](CCC(=O)O)C(=O)N[C@@H](CC(C)C)C(=O)N[C@@H](CC(C)C)C(=O)O)NC(=O)[C@H](CCCNC(=N)N)NC(=O)[C@H](CCC(N)=O)NC1=O
Human β2AR [6]
  IC50 (nM) of isoproterenol, [3H]-DHA RLA, peptidomimetic present: 417 nM
  Shift: 2
Human β2AR [3]
  Shift (averaged): 2

B11: compound 24 (peptide)
peptide: FNECRDKIQRMHLRQYELL
HELM: PEPTIDE1{[ac].F.N.E.C.R.D.K.I.Q.R.M.H.L.R.Q.Y.E.L.L}$PEPTIDE1,PEPTIDE1,4:R3-8:R3$$$V2.0
SMILES: CC[C@H](C)[C@H](NC(=O)[C@@H]1CCCCNC(=O)CC[C@H](NC(=O)[C@H](CC(N)=O)NC(=O)[C@H](Cc2ccccc2)NC(C)=O)C(=O)N[C@@H](CS)C(=O)N[C@@H](CCCNC(=N)N)C(=O)N[C@@H](CC(=O)O)C(=O)N1)C(=O)N[C@@H](CCC(N)=O)C(=O)N[C@@H](CCCNC(=N)N)C(=O)N[C@@H](CCSC)C(=O)N[C@@H](Cc1c[nH]cn1)C(=O)N[C@@H](CC(C)C)C(=O)N[C@@H](CCCNC(=N)N)C(=O)N[C@@H](CCC(N)=O)C(=O)N[C@@H](Cc1ccc(O)cc1)C(=O)N[C@@H](CCC(=O)O)C(=O)N[C@@H](CC(C)C)C(=O)N[C@@H](CC(C)C)C(=O)O
Human β2AR [3]
  Shift (averaged): 7
Human β2AR [4]
  IC50 (nM) of isoproterenol, [3H]-DHA RLA, peptidomimetic present: 97.3 nM
  Shift: 7

B12: compound 72 (peptide)
peptide: Ac-NARRIFNDCRDIIQRMHLRQYELL-OH
Human β2AR [1]
  Shift (averaged): 47
Human β2AR [7]
  IC50 (nM) of isoproterenol, [3H]-DHA RLA, peptidomimetic present: 22.2 nM
  Shift: 46

B13: compound 67 (peptide)
peptide: RDIIQRMHLRQYEXL
HELM: PEPTIDE1{[ac].R.D.I.I.Q.R.M.H.L.R.Q.Y.E.[Cha].L}$$$$V2.0
SMILES: CC[C@H](C)[C@H](NC(=O)[C@H](CC(=O)O)NC(=O)[C@H](CCCNC(=N)N)NC(C)=O)C(=O)N[C@H](C(=O)N[C@@H](CCC(N)=O)C(=O)N[C@@H](CCCNC(=N)N)C(=O)N[C@@H](CCSC)C(=O)N[C@@H](Cc1c[nH]cn1)C(=O)N[C@@H](CC(C)C)C(=O)N[C@@H](CCCNC(=N)N)C(=O)N[C@@H](CCC(N)=O)C(=O)N[C@@H](Cc1ccc(O)cc1)C(=O)N[C@@H](CCC(=O)O)C(=O)N[C@@H](CC1CCCCC1)C(=O)N[C@@H](CC(C)C)C(=O)O)[C@@H](C)CC
Human β2AR [1]
  Shift (averaged): 30
Human β2AR [8]
  IC50 (nM) of isoproterenol, [3H]-DHA RLA, peptidomimetic present: 45.4 nM
  Shift: 17

B14: compound 3 (peptide)
peptide: Ac-FNDCRDEIQRKHLRQYELL-OH
Human β2AR [3]
  Shift (averaged): 2
Human β2AR [5]
  IC50 (nM) of isoproterenol, [3H]-DHA RLA, peptidomimetic present: 408 nM
  Shift: 2

B15: compound 66 (peptide)
peptide: QRMHLRQYEXL
HELM: PEPTIDE1{[ac].Q.R.M.H.L.R.Q.Y.E.[Cha].L}$$$$V2.0
SMILES: CSCC[C@H](NC(=O)[C@H](CCCNC(=N)N)NC(=O)[C@H](CCC(N)=O)NC(C)=O)C(=O)N[C@@H](Cc1c[nH]cn1)C(=O)N[C@@H](CC(C)C)C(=O)N[C@@H](CCCNC(=N)N)C(=O)N[C@@H](CCC(N)=O)C(=O)N[C@@H](Cc1ccc(O)cc1)C(=O)N[C@@H](CCC(=O)O)C(=O)N[C@@H](CC1CCCCC1)C(=O)N[C@@H](CC(C)C)C(=O)O
Human β2AR [1]
  Shift (averaged): 2
Human β2AR [8]
  IC50 (nM) of isoproterenol, [3H]-DHA RLA, peptidomimetic present: 551 nM
  Shift: 1
